Test results as given in patent US20260265410A1 (UNIVERSITY OF FLORIDA RESEARCH FOUNDATION, published 2026).
Where a chain is given by its changes, count along the chain named. One block for each binder: values may come before it.

Tests used:
[1] = biological target: T1, human CD105-ECD: amino acid residues Met 1-Gly 586 of human CD105 (Sino bio: Cat: 10149-H02H) (human, UniProt P17813 26-586); experiment: ELISA, absorbance at 405 nm, one condition per Fab and antigen
T1 construct: Bought; also called hCD105-ECD-hFc; hCD105-hFc
T1 sequence: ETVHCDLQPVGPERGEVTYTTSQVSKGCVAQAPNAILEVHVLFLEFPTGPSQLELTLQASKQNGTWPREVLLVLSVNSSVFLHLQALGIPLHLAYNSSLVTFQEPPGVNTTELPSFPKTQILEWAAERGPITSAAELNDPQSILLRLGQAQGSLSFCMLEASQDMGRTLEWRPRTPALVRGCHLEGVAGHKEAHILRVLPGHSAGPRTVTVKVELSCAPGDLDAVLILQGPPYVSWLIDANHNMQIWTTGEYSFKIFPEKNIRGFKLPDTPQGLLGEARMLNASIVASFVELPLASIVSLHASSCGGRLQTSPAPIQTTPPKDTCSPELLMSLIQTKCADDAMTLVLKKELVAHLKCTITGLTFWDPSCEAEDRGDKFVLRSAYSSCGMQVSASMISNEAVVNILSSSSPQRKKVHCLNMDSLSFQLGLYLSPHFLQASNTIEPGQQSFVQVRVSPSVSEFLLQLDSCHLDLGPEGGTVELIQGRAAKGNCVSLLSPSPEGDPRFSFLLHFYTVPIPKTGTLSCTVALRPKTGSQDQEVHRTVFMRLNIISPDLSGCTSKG

[2] = biological target: T2, human Nectin-2 on the cell surface (U937 cells) (human, UniProt Q92692 32-538); experiment: flow cytometry on whole U937 cells, screen of the 28 clones (Ctrl row = 0); Nectin-2 is named as the antigen on U937 cells only in the later examples
T2 construct: Endogenous Nectin-2 of U937 cells; also called PVRL2; CD112
T2 sequence: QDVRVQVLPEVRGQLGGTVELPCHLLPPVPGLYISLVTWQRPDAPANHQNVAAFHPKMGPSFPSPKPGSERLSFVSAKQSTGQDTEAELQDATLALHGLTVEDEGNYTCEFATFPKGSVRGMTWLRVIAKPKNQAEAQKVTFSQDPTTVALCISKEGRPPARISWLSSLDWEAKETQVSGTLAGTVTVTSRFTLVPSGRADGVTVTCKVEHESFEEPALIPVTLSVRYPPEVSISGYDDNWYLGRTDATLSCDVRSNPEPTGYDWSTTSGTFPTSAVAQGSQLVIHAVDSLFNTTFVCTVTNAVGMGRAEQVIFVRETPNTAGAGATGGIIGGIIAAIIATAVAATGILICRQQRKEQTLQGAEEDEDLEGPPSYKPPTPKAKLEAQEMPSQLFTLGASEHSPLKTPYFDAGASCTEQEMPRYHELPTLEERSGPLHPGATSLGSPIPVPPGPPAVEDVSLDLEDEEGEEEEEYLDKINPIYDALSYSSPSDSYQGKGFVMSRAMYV

[3] = biological target: T3, human PTPRG extracellular domain (ECD) (residues 20~736 of human PTPRG) fused to hFc (human, UniProt P23470 20-736); experiment: ELISA, one condition per Fab and antigen; y axis 0 to 1.8 without name or unit
T3 construct: Produced in-house by transient transfection of Expi293 cells; also called hPTPRG-ECD-hFc; hPTPRG-ECD; not shown: human Fc (hFc)
T3 sequence: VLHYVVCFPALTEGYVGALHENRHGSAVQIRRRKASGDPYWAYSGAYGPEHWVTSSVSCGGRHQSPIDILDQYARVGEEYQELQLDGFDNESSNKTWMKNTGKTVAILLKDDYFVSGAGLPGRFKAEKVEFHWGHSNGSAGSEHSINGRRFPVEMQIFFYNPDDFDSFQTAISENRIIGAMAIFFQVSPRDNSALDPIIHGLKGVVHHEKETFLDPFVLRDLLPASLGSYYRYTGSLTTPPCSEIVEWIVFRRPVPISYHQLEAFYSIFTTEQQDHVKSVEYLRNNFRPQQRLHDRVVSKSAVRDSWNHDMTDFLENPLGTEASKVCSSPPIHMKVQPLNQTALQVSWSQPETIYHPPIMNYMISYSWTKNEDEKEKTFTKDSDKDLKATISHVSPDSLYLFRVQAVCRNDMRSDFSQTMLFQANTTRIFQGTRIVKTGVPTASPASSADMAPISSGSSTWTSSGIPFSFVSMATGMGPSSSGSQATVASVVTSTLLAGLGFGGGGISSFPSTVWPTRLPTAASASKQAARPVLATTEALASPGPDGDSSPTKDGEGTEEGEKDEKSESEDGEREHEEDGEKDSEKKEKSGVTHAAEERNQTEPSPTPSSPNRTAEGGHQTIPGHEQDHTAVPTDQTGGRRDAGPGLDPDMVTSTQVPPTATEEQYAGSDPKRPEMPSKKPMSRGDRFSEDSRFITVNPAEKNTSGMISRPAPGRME

[4] = biological target: T4, mouse PTPRG ECD (amino acid residues 20-733 of mouse PTPRG) fused to hFc (mouse, UniProt Q05909 20-733); experiment: as above
T4 construct: Produced in-house; also called mPTPRG-ECD; Mouse PTPRG-ECD-hFc; not shown: human Fc (hFc)
T4 sequence: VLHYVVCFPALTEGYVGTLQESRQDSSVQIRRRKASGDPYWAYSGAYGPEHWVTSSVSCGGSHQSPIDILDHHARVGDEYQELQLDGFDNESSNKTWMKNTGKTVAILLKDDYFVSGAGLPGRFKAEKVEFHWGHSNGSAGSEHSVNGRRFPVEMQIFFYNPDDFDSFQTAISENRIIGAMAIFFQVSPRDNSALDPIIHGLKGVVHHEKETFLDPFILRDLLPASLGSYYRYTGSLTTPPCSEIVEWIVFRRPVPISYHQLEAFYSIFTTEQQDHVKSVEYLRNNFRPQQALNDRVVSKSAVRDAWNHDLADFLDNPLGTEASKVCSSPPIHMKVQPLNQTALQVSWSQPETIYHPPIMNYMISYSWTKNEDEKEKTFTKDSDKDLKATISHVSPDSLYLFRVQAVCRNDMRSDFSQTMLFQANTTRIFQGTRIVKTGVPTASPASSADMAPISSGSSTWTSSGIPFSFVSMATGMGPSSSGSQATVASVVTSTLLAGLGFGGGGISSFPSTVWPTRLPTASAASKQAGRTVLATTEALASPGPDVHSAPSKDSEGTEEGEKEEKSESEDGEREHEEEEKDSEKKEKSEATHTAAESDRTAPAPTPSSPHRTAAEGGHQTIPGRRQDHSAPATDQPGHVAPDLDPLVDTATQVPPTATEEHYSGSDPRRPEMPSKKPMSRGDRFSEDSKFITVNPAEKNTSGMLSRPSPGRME

[5] = biological target: T5, N-terminal domain (NTD) of human PTPRG (amino acid residues 20~448 of human PTPRG) (human, UniProt P23470 20-448); experiment: as above
T5 construct: also called hPTPRG-NTD; human PTPRG NTD
T5 sequence: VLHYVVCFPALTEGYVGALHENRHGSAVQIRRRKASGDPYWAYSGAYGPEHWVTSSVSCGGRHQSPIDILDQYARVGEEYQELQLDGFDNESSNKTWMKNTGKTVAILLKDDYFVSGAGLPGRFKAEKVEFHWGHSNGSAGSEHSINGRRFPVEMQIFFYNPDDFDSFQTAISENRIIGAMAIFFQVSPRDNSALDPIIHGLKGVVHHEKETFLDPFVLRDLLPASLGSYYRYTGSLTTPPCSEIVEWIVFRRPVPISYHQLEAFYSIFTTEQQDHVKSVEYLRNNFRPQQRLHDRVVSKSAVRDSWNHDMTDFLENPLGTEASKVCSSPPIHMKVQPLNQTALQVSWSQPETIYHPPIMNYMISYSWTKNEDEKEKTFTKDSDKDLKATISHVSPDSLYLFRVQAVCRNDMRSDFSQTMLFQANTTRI

[6] = biological target: T3, human PTPRG extracellular domain (ECD) …; experiment: ELISA, absorbance at 405 nm, one condition per Fab and antigen
[7] = biological target: T6, human Nectin-2 extracellular domain (amino acid residues 1-360 of human Nectin-2) fused to hFc (human, UniProt Q92692 32-360); experiment: as above
T6 construct: Bought; also called hNectin-2-ECD-hFc; NECTIN2-ECD-hFc; not shown: human Fc (hFc)
T6 sequence: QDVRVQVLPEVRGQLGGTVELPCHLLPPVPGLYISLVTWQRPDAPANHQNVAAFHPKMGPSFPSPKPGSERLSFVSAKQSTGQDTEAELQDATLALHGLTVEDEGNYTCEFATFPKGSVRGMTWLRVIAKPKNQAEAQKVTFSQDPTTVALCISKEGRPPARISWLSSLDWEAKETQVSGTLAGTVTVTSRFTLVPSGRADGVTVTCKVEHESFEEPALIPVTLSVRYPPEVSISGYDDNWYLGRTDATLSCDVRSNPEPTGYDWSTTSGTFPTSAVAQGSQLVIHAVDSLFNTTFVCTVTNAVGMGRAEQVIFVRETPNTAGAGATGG

[8] = biological target: T2, human Nectin-2 on the cell surface …; experiment: competition flow cytometry on U937 cells; competitor of 0.5 µg Alexa 647 labelled Fab_2282

binding result [1]: no binding | flow cytometry binding value (the table prints no name or unit) [2]: 94.8 | binding result [3]: no binding | binding result [4]: no binding | binding result [5]: no binding
B1: Fab_484 (Fab, V domains shown)
VH: AQSLEESGGRLVTPGTPLTLTCTASGFSLSSYHMAWVRQAPGKGLEWIGIISSSGSTYYASWAKGRFTISKTSTTVDLKITSPTTEDTATYFCARGFGWGPNLWGPGTLVTVSS
VL: SFVLTQPASVQVNLGQMVSLTCTADTLSRSYASWYQQKPGQAPVLLIYRDTSRPSGVPDRFSGSTSGNTATLTISGAQAGDEADYYCATDDNSGSSYQYVFGGGTQLTVTG
notes: Chimeric rabbit/human Fab; also called N484

binding result [6]: no binding | binding result [7]: no binding | binding result [8]: no binding (tested: 5 µg)
B2: Fab_2810 (Fab, V domains shown)
VH: QEQLEESGGRLVTPGTPLTLTCTASGFSLTNYYMTWVRQAPGKGLEWIGTIYAGTGSTWYASWVKGRFTISKTSTTVDLKITSPTTEDTATYFCVRGYLGWSSGIENIWGPGTLVTVSS
VL: B1 VL with M17T, T65S, D90S, N92G, S96T, Y97F, Q98H, Y99F
notes: Chimeric rabbit/human Fab; also called E2810; mAb_2810
